Assay results: patent US6613358B2, “Sustained-release composition including amorphous polymer” (priority 1998, dated 2003)
Several values for one entry are separate records, joined by “and”; a condition that tells them apart may be missing. Equal entries are not always repeated. Peptide text beside a SMILES is read from it.

Key:
[1] = Apparent partition coefficient water/1-octanol upon SDS addition
Source text: The relative solubilities in two phases is given in terms of an apparent partition coefficient. The apparent partition coefficient is defined as the ratio of the equilibrium concentration in an organic phase to that in an aqueous phase. The actual value of the apparent partition coefficient, P, is dependent on the two solvent systems employed. In all cases herein described, the organic phase is 1-octanol and the aqueous phase is water alone or with a minimal amount of HCl added.
Apparent partition coefficients were measured by dissolving a peptide in 1.25 ml of an aqueous solution. Before SDS addition, the pH was measured on a Beckman pH meter. […] An equal volume of 1-octanol was added and the mixtures agitated, and then left undisturbed for several hours. Prior to analysis, the tubes were spun for 10 minutes at 4000 g. Each layer was removed and the absorbance measured on a Beckman DU-64 UV-visible spectrophotometer using I cm quartz cells. All apparent partition coefficients were corrected for changes in pH with differing SDS concentrations.
Results are described as logarithms of the apparent partition coefficient. A log P value of 0 means that the compound is equally soluble in water and the organic phase. […] All of the log P values reported herein have been corrected for slight changes in solubility with pH.

CCRF-CEM cells = assay: Cytotoxicity, MTS cell proliferation assay; type: cell-based, human; conditions: Homo sapiens, 2-6 hours exposure, 72 hours incubation, read-out: IC50 (half-maximal growth inhibition)
Procedure: (§1) The cytotoxicity of arginine dodecyl ester was investigated in cell culture with two types of cells (see Cory et al, Cancer Commun., 3, 207-212 (1991)): CCRF-CEM cells, a human T-cell leukemia cell line that grows in suspension (obtained from the American Type Culture Collection, ATCC); and a green monkey kidney cell line (COS-7) that grows in monolayers (also obtained from ATCC). For comparison, the cells were also exposed to […] bromide (DTAB) (Sigma).
(§2) Cells were plated into 96-well plates (Corning) in a total of 200 μL Dulbecco's modified minimal essential medium for COS-7 cells, RPMI 1640 for CEM cells, supplemented with penicillin G (50 U/ml), streptomycin sulfate (50 μg/ml), and 10% fetal calf serum, at 10,000 cells/well for COS-7 and 50,000 cells/well for CEM cells. The plates were incubated at 37° C. for 24 hours after plating. The cells were then exposed to various concentrations of the detergents. Each detergent concentration was used in 8 replicate wells. After 2-6 hours, media/detergent solutions were aspirated, and the wells were washed twice with PBS. For CEM suspension cells, centrifugation of the suspension at 1000× g for 5 min between each wash was required. After washing, 200 μL of fresh medium were added, and the cells were incubated for 72 hours. After 72 hours, cell proliferation was determined using the Promega CellTiter 96 AQueous Non-Radioactive Cell Proliferation Assay.

COS-7 cells = assay: Cytotoxicity, MTS cell proliferation assay; type: cell-based, green monkey; conditions: Chlorocebus sabaeus, 2-6 hours exposure, 72 hours incubation, read-out: IC50 (half-maximal growth inhibition)
Procedure: as §1
as §2, with “After washing, 200 μL of fresh medium were added, and the cells were incubated for 72 hours.” left out, “Assay. […]” for “Assay.”

[2] = Surface tension, critical micelle concentration; type: physicochemical; conditions: in 0.1 N HCl
Procedure: Surface tension was measured using a Fisher surface tensiometer. Briefly, a platinum iridium ring with a diameter of 6 cm was lowered into the appropriate dilution of detergent in 0.1 N HCl. Surface tension was read at the point where the force on the ring upwards caused the ring to break contact with the liquid surface.

[3] = Solubility of arginine octyl ester powder; type: physicochemical
[4] = Partitioning of anionic compounds with arginine esters; type: physicochemical; conditions: for log p: pH 5.5 buffer, 1 mg/mL
Procedure: Stock solutions of the arginine esters were made by first dissolving the powder in 0.1 N HCl to give a 10 mM solution and then raising the pH to a value between 5 and 6. The pH should not be raised above 8.
Anionic compounds were dissolved in pH 5.5 buffer (10 mM bis-tris propane, 10 mM CaCl2, 10 mM KCl). Appropriate amounts of the stock solution of arginine ester (see above), the anionic compound and buffer were mixed so that the final concentration of the anionic material was 1 mg/mL. An equal volume of organic solvent was added, and the samples were vortexed for 15 seconds on high speed. Layers were separated by centrifugation at 4000 rpm for 5 minutes. Concentrations of the anionic material in the aqueous and organic layers were determined by UV spectroscopy on a Beckman DU-64 series spectrophotometer.

[5] = type: physicochemical
Source text: Larger proteins can also form complexes with SDS. […] At higher SDS concentrations, hGH redissolves, presumably via micellar solubilization. […] Other proteins can also form complexes with SDS. Bovine pancreatic trypsin inhibitor (BPTI) is a small basic protein (MW 5900) with a well defined and stable structure (Wlodawer et. al. (1984) J. Mol. Biol. 180:301-329, and (1987) J. Mol. Biol. 193:145-156). […] In TMP, the globular structure is compromised, as determined by CD spectroscopy. Apparently, TMP is a strong enough solvent to displace water from the hydration sphere and destabilize the structure of BPTI. This mechanism of protein denaturation has been described in detail by Arakawa and […] (1982) Biochemistry 21:6536-6544. and (1982) Biochemistry 21:6545-6552.

[6] = Thermal denaturation (Tm) following molar ellipticity at 222 nm; type: physicochemical
Source text: [define Tm. […] (FIG. 6), which is more than 30 degrees above that observed in water.

[7] = Partitioning and dissolution of SDS-insulin complexes in non-aqueous solvents; type: physicochemical; conditions: for Apparent Sol. / Log P: SDS-insulin complex
Source text: Dissolution of insulin-SDS complexes in other solvents was investigated as well (Table 1). Precipitates of SDS-insulin complexes were isolated and added to various organic solvents. […] Besides alcohols. SDS-insulin complexes are soluble in N-methylpyrrolidone (NMP), trimethylphosphate (TRIP), polyethylene glycol, ethanol, and t-butanol.

[8] = CD spectrometry of protein structure in organic solvent; type: physicochemical; conditions: extracted from 1-octanol into 0.10 M HCl; 53 ug/ml, 5° C.
Procedure: CD spectra were recorded on an Aviv 62DS spectrophotometer equipped with a thermoelectric temperature unit. All temperatures were measured ±0.2° C. Samples were placed in strain-free quartz cells (pathlength of 1 mm) and spectra obtained taking data every 0.25 nm using a three second averaging time, and having a spectral bandwidth of 1 nm.
The pathlength was 1 mm, the sample concentration 53 ug/ml, and the sample temperature 5° C.

[9] = Melting point of SDS:insulin ion pairs in 1-octanol (CD signal and absorbance at 222 nm); type: physicochemical
Procedure: Equal volumes of octanol were added to each SDS:insulin solution to partition the insulin into the octanol phase. […] Both circular dichroism (CD) signal and light scattering (as measured by changes in absorbance) were measured at 222 nm and the melting point determined by an inflection point in the measured scan.

[10] = organic solvent Propylene Glycol
[11] = organic solvent Trifluoroethanol
[12] = organic solvent Trimethyl phosphate

Compound: NC(=O)CC[C@@H]1NC(=O)[C@H](Cc2ccccc2)NC(=O)[C@H](Cc2ccc(O)cc2)NC(=O)[C@@H](N)CSSC[C@@H](C(=O)N2CCC[C@H]2C(=O)N[C@@H](CCCN=C(N)N)C(=O)NCC(N)=O)NC(=O)[C@H](CC(N)=O)NC1=O [AVP, 8-Arg-vasopressin]
- log p ([1]; pH 7): > 1
- increase of apparent partition coefficient ([1]; upon stoichiometric SDS addition, water/1-octanol): nearly four orders of magnitude

Compound: CCCCCCCCCCCCCC[N+](C)(C)C [DTAB, tetradecyltrimethylammonium bromide, reference compound]
- IC50 (CCRF-CEM cells): 20 µM
- IC50 (COS-7 cells): 80 µM

Compound: NCC(=O)N[C@@H](Cc1ccccc1)C(=O)O [Gly-Phe] (H-Gly-Phe-OH)
- enhancement of partition coefficient with SDS ([1]; neutral pH (zwitterionic form)): little enhancement of the partition coefficient is observed
- partitioning with SDS ([1]; pH 3): mirrors the marked increase seen for Gly-PheNH2

Compound: CCCCCCCCOC(=O)[C@@H](N)CCCNC(=N)N [arginine octyl ester]
- critical micelle concentration (cmc) [2]: about 6 mM and ~2.2 mg/ml
- dissolution in HCl [3]: would only dissolve in 0.1 N or stronger HCl
- solubility in water [3]: insoluble
- solubility in organics ([3]; alcohols, hydrocarbons, aromatics, DMF and pyridine): insoluble

Compound: Cc1ccc(S(=O)(=O)[O-])cc1.[Na+] [p-toluenesulfonic acid, sodium salt]
- log p ([4]; Ester C8 (arginine octyl ester), solvent isooctane): −2.2
- log p ([4]; Ester C8 (arginine octyl ester), solvent octanol): −0.353
- log p ([4]; Ester C12 (arginine dodecyl ester), solvent octanol): −0.336
- log p ([4]; Ester none, solvent isooctane): −2.7
- log p ([4]; Ester none, solvent octanol): −1.62

Compound: Gly-Phe-NH2
- partitioning of SDS complex into 1-octanol ([1]; pH 7, 1:1 complex with SDS): readily partitions into 1-octanol

Compound: bovine serum albumin: protein tested for partitioning with arginine dodecyl ester
- partitioning into octanol layer ([4]; arginine dodecyl ester added, solutions turned cloudy): none would partition into octanol layer

Compound: hGH: human growth hormone
- solubility of SDS precipitate in 1-octanol [5]: not found to be soluble
- aqueous behaviour on addition of SDS ([5]; pH 2): precipitates from aqueous solution
- aqueous solubility on addition of SDS ([5]; pH 7.8): not affected

Compound: insulin
- Tm in 1-octanol above that observed in water [6]: more than 30 degrees
- Tm of thermal denaturation ([6]; in 1-octanol (SDS complex), molar ellipticity at 222 nm): 98 °C
- Tm of thermal denaturation ([6]; in aqueous solution): about 65 °C
- Apparent Sol. ([7]; organic solvent 1-Chlorooctane): insoluble
- Log P ([7]; organic solvent 1-Chlorooctane): not detectable
- Apparent Sol. ([7]; organic solvent 1-octanol): ≧1.0 mg/ml
- Log P ([7]; organic solvent 1-octanol): ≧1.2
- Log P ([7]; organic solvent Acetone): miscible
- Apparent Sol. ([7]; organic solvent CCl4): insoluble
- Log P ([7]; organic solvent CCl4): not detectable
- Apparent Sol. ([7]; organic solvent CH2Cl2): insoluble
- Log P ([7]; organic solvent CH2Cl2): not detectable
- Apparent Sol. ([7]; organic solvent DMF): ≧1.0 mg/ml
- Log P ([7]; organic solvent Dimethoxyethane): not detectable
- Apparent Sol. ([7]; organic solvent Ethanol): ≧1.0 mg/ml
- Log P ([7]; organic solvent Ethanol): miscible
- Apparent Sol. ([7]; organic solvent Ether): insoluble
- Log P ([7]; organic solvent Ether): not detectable
- Apparent Sol. ([7]; organic solvent Ethyl acetate): insoluble
- Log P ([7]; organic solvent Ethyl acetate): miscible
- Apparent Sol. ([7]; organic solvent Hexane): insoluble
- Log P ([7]; organic solvent Hexane): not detectable
- Apparent Sol. ([7]; organic solvent Methanol): ≧1.0 mg/ml
- Log P ([7]; organic solvent Methanol): miscible
- Apparent Sol. ([7]; organic solvent Mineral Oil): insoluble
- Log P ([7]; organic solvent Mineral Oil): not detectable
- Apparent Sol. ([7]; organic solvent NMP): ≧1.0 mg/ml
- Log P ([7]; organic solvent NMP): miscible
- Apparent Sol. ([7]; organic solvent PEG 400): ≧0.2 mg/ml
- Log P ([7]; organic solvent PEG 400): miscible
- Apparent Sol. [7, 10]: ≧0.5 mg/ml
- Log P [7, 10]: miscible
- Log P ([7]; organic solvent THF): miscible
- Apparent Sol. ([7]; organic solvent TMP): ≧0.2 mg/ml
- Log P ([7]; organic solvent TMP): miscible
- Apparent Sol. [7, 11]: ≧0.5 mg/ml
- Log P [7, 11]: miscible
- Apparent Sol. [7, 12]: ≧0.15 mg/ml
- Log P [7, 12]: miscible
- Apparent Sol. ([7]; organic solvent i-Propanol): ≧1.0 mg/ml
- Log P ([7]; organic solvent i-Propanol): miscible
- structure by CD after extraction back into aqueous phase [8]: overall structure similar to that of native insulin

Compound: insulin-SDS complex: hydrophobic ion pair complex of insulin with sodium dodecyl sulfate
- structure after prolonged heating ([6]; in 1-octanol, 70° C. for more than 1 hour): appears to maintain its native structure
- solubility in organic solvents [7]: soluble
- melting point in octanol (apparent maximum) ([9]; 6:1 SDS:insulin molar ratio, 200 ug/ml): about 116 °C
- melting point in octanol, absorbance scan at 222 nm ([9]; 9:1 SDS:insulin molar ratio): 106 °C
- melting point in octanol, CD scan at 222 nm ([9]; 9:1 SDS:insulin molar ratio, maxima of first derivative): 106 °C
